{
  "source": "patent US6399352B1",
  "about": "“Plant porphobilinogen synthase and fusion protein thereof” (Paradigm Genetics, Inc., priority 1999, dated 2002)",
  "test": "Enzyme activity of plant thioredoxin-porphobilinogen synthase: PBG formation from ALA (EC 4.2.1.24)",
  "format": "biochemical",
  "conditions": "37° C., 1 hour, Tricine buffer pH 7.9, 2.5 mM ALA, 5 mM MgCl2, 1.25 μg purified recombinant protein; Ehrlich's reagent, OD 555 nm",
  "experimental": "Enzyme activity is tested in accordance with EC 4.2.1.24 using the following assay principle: [drawing 1] The enzyme activity of plant thioredoxin-porphobilinogen synthase (T-PPS) is measured as porphobilinogen (PBG) formation from δ-aminolevulinic acid (Aminolevulinate or ALA). A typical reaction is as follows: the reaction is carried out at 37° C. for 1 hour in Tricine buffer pH 7.9 or other suitable biochemical buffer, 2.5 mM ALA, 5 mM MgCl2 and 1.25 μg of purified recombinant protein from E. coli expression system in a final assay volume of 100 μl. PBG is quantified spectrophotometrically after reaction with the 100 μl Ehrlich's reagent solution. Optical density is determined after 60 minutes at 555 nm.",
  "data": [
    {"substance": "plant thioredoxin-porphobilinogen synthase: fusion protein of thioredoxin and tomato plant porphobilinogen synthase, expressed in E. coli (SEQ ID NO: 2)", "values": [
      {"measurement": "enzyme activity (conversion of ALA to PBG)", "result": "active"}
    ]}
  ]
}
